From the DeepSol protein solubility set come the findings set out here.

This data set in a line: soluble on expression in E. coli; label from the status in PepcDB or PDB records.
As to “MANHVSLILPPLSLYIHIPWCVQKCPYCDFNSHTQKGTIPEAEYIQHLLADLSQDLVTYKTAIANRKIHSIFIGGGTPSLFSAEAIAYLLAEIKQRIAFAPKIEITLEANPGTAEAERFICYTEAGINRISMGIQSFEEEKLRKLGRIHDAHEAKQAVYFAKNALISPSRTVGLHSFNLDLMHGLPNQTLEQALADLNTAISLNPPHFSWYQLTIEPNTMFYYRQPTLPDDDELWAIFEQGHQLLTMAGYQQYETSAYAKQGFQCQHNLNYWRFGDYLAIGCGAHGKISYPSGEIYRFSKTKHPKGYMRGDYRDSQQSIQLDDRPFEFFMNRFRLLEPTPKQEFECYTGLDCERVRPTIDWALNKHYISETSTTWQVTQKGKLFLNELLAGFLTLEHHHHHH”, the “soluble on expression in E. coli” value is reported as “not soluble”.
In the case of “MTWLDEKGRFAIYEAPQNCPYLGTIGTCYEFGSLPVILMFPELEKLFLKLLISYVRNDGYVPHDLGFHSLDSPIDGTTSPPKWKDMNPSLILLVYRYFKFTNDIDFLKEVYPTIVKVMDWELRQCRDGLPFMEGEMDNAFDATIIKGHDSYTSSLFIASLIAMREIAKLVGDSNYVGFINEKLNVAREAFRKMFNGKYFKAWDGVDKASFLAQLYGEWFTTLLELENIVDENMIKSALESIIRLNGNASPYCVPNLVDENGKIVNLSVQTYSSWPRLVFAICWLAYKKGVGDLSFCKKEWDNLVRNGMVWDQPSRINCYTGKPEINYLDHYVGSPSLWSFLFLEHHHHHH” it was “not soluble”; in that of “MKYDDTINIAFFGLDRRQKTDISRSDSIMILTMDPTHKKLKLSSIMRDTYVNVDGHGMTKITHAYAYGGPQLAIKTINENFNLNIKDYVTVDFYGLEKIIDKLNGVEVDVQPDEVNYLNSYIDEVSKYEKVTPNHVSSAGKQLLDGRQAVAYSRIRYTAGGDFQRTERQRTVLMAVFNKMKAQGKSNMLSMMDELLPYAETDLGSLDIAKYGAKFLSSNIDSIDQERFPVDGYCSGITVDNVWYLKTDLGVTSDQMKKYIFEDVKPTPKASLVNIPAKLEHHHHHH”, “soluble”; in that of “MKEVIAQNAKLSADDLKEILPKANKLEDFAFEKNEDSTISEVFQAKNGSENEGYIIKVSPKGFNGPIDMVVAIDKNREISGVKVLSQAETPGLGAKVEESSFSEKFKGLTIEDNIKIVKTSPSSQGEIQGITGATISSNAVSSGINDAISFYKENVLGEDLSKEKILNLSKINLEGDLKELTIELEEGIDKVSIVSNGEKEIGYAIEASEVGMYEEKPIKFALGISTGGIITGVQIIDHKETAGLGDLIEDENFLNSFIGVSSLDKLSVKENTNEIDLSVYGEVVNVDSISGATKSSMAIIKGITNVINFYNNNLSLEHHHHHH”, “soluble”.
Take “LKQRRKIANEVKIKNTLLEYAQQITQMGTFEYNVFTNTLFWSNEMYNIFELDRSVIPEINFIDSLIKEESEITHNRRKKNFQPGASYSDELKIRTVNGNEKVLISNGYVVNEENGLVVHGAIIDIT”: the “soluble on expression in E. coli” value was “not soluble”.
In the case of “MTGGTGADAASAGASSTRPELRGERCLPPAGPVKVTPDDPRYLNLKLRGANSRFNGEPDYIHLVGSTQQVADAVEETVRTGKRVAVRSGGHCFEDFVDNPDVKVIIDMSLLTEIAYDPSMNAFLIEPGNTLSEVYEKLYLGWNVTIPGGVCGGVGVGGHICGGGYGPLSRQFGSVVDYLYAVEVVVVNKQGKARVIVATRERDDPHHDLWWAHTGGGGGNFGVVTKYWMRVPEDVGRNPERLLPKPPATLLTSTVTFDWAGMTEAAFSRLLRNHGEWYERNSGPDSPYTGLWSQLMIGNEVPGMGESGFMMPIQVDATRPDARRLLDAHIEAVIDGVPPAEVPEPIEQRWLASTPGRGGRGPASKTKAGYLRKRLTDRQIQAVYENMTHMDGIDYGAVWLIGYGGKVNTVDPAATALPQRDAILKVNYITGWANPGNEAKHLTWVRKLYADVYAETGGVPVPNDVSDGAYINYPDSDLADPGLNTSGVPWHDLYYKGNHPRLRKVKAAYDPRNHFHHALSIRP” it was “soluble”; in that of “MNIVPILLIRFYQSFISPLLGPSCKYHPTCSNYAIEAFRQHNFFYASWLTVWRVLRCNPFSKGGYDPVPPKSVKSAGNSKDSKLEHHHHHH”, “not soluble”; in that of “MKWSSMLKVSAISLSVFTAVSAKAQLGEPEIEDLKFGFIKLTDMAPLAVAYEKGFFEDEGLYVTLEAQANWKVLLDRVIDGELDGAHMLAGQPLGATIGVGTKAEVITAFSMDLNGNAITVSNDTWEQMKPHIPKQPDGKPVHPIKADSLKPVVDSYRDKGKSFNMGMVFPVSTHNYELRYWLAAGGIHPGFYAPDSGDNSGQLDADVLLSVTPPPQMPATMEAGTIKGYCVGEPWNQQAVFKGIGTPVVTDYEIWKNNPEKVFGVSKAWAEKNPNTHIRVVKALIRAAHWLDENSNANRQEAVKMLAKSEYVGADADVIANSMTGTFEYEKGDKRDVPDFNVFFRHNATYPYYSDAIWYLTQMRRWGQISSEKSDDWYMDVAKEVYRPDIYQQAAQALIEDGVLSKKDFPDFSAEDGFRPPQTHFIDNIVYDGREPNKYLEKFSIGLKGKDKVMAGDPLEHHHHHH”, “soluble”.
The value for “GPGSMERVRIRYVLTGACPPTYSGRVVHDFVALKQPNGCDTTIEMVKERFRSNWPADVKELAESISESGIRVLKAGRVLNDHDSLMRHLTASERKACLVSGDTKVGDTNDEMQKPSVLMHMVIQGNRAPLENSRKEKHKVSSTPEGGNSNEGHEMKKDSCCCVM” was “soluble”; that for “MNKAQIEIYYCRQCNWMLRSAWLSQELLHTFSEEIEYVALHPDTGGRFEIFCNGVQIWERKQEGGFPEAKVLKQRVRDLIDPERDLGHVDRPSSTQSLEHHHHHH” was “soluble”.
As to “MGSDKIHHHHHHMQRSPIRRSNYTPRNEKGLEGVIELQLNVVSDYLHVGSGKYDVEVMRSVSDVKRLVEDYLSGGNKRIPNNVDQYFSMVAFLMVRNKDNVVIPGSTIKGMVRSRLELSVPGSCYIVTGHSTSSSAVYKRIFNPDPNRGSDRFDVNKFPQVCPVCDLLGNMGLASRVSLSDFVMTSGKVDYVNVKGRDYEVVTKGSIFAGKVLYKSLKPVEIGMLLYGFGFVKDCNGSKVMLLGRFKFSDKRFGRVKFSLKTPIADCNKLVSDFVKQFNPRYINEEW”, the “soluble on expression in E. coli” value is recorded as “not soluble”.
Regarding “FTPVTKAAVINTFDGVADYLIRYKRLPNDYITKSQASALGWVASKGDLAEVAPGKSIGGDVFSNREGRLPSAGSRTWREADINYVSGFRNADRLVYSSDWLIYKTTDHYATFTRIR”, the “soluble on expression in E. coli” value is on record as “soluble”.
With “MGHHHHHHSHKNMKPIGCNAVQLTGGEPTLRDDLIDIIRMIKEEGYDHIQLNTNGIRLAEDPDFALRVRVAGVNTVYLSFDGVDEKTNPKNHHEIPKILENCRRAQLGLVLVPTVIKGVNDHQLGDIIRFAAENIDIVRGVNFQPVSLVGSMPRKEREQFRITIPDCIKAIEEQTNGEIGREDFYPVPSVVPISRFVEALTGQPQYELTTHFACGMATYIFKDNGRLIPITRFVDVEGLFEF”, the “soluble on expression in E. coli” value is “not soluble”.
In the case of “MTTRVLYVRHAHAHGRQTWGGDDNKRPLDKKGRRQAEMLVPMLLPFKPTAIYSAVPDRCQATALPLADELGLDVSVNRLFGDDAWETDPEACKKRFTDVVAQGGVPMIVGQGDIIPEMIKWFSENGTLPIDEKIKAKKGSVWVLSFHDGVFTGADYLEHHHHHH” it was “soluble”.
The value for “MELKQFKIAVLPLRDKLLSYARKLTDDHSDAEDAVQEVMLKLWNLRPKLDEYHSIEALAMTMTHHTCMDILRGKHPDNLSLDSVQAASPVATPERLLEEKDEFSLMRHIISTLPPLQQTILRMKDVEEYETEEIAEITGCSSEAIRSNLSRARKKVRDIYLQTIQQRKRRNEA” was “not soluble”.
As to “TKDFSWNTTFNISHNKNEIVTLDGMQTEIISGTQIRKVGKSYRTFYMIEFAGINPETGAPQFYTNDLDENGNYIKEITEKYSEANAIVLDKHAEPNVIGGLSNTLRYKWFDLNFMFSYQFGGYSYDNWAQKTEHGGNDLEANIPTYYRDSWKQPGDITKYELFIESPDVAMNKSTTTRRLHSSDFIRLKTLTFGITLPQVWTQKIGVNNVRVYASANNLWTWAAYDYYDPEAVSGGSAIWGTPPLKTVTFGLSVNF”, the “soluble on expression in E. coli” value was “not soluble”.
Regarding “MKKMHVESEFAPLRSVVLAQSQFCLPDKFDEADTTFLTEENARLTQNNEGRDLADFAPEQQVRWEKEKEVMQGVLESYGVEVFRPRLLTTYEKEHGKELGVGYSNFFSRDPFFTIGNLLIEGNLRFQHRRQEILPIRPIIQQWTQEAEGYYFAAPQPDISEGALSEAGPFIEGGDVLVLGKTIFVGYSGLASNLAGIQWLANMIGHFGYEVVPVRLHPHILHLDCALSLLREGLMIVCEEAFLDGLPAQLANWEKIHVTLQEAAYLVTNGLPLNEETYITDQSFTTLIPQIEAKGIKVEAIDYHVSRMLGGSFRCTTQALIRE”, the “soluble on expression in E. coli” value was “not soluble”.
For the sequence “MAHHHHHHMKPVYRYAMNHEYNINSICPIAYSDQFATADDATVLLWCTEYPDTSIETHDMRSPYEDGPRETICAVRNFPHEPFLFFVATSGGSVRVVDTRQTLRWGDQAAQAFINPPREEDEPFSNVTNSICDCALSPSGRYIAGRDFMSICLWDIRMAGSGGARNAPATPRRQAPAARGGDGNPECSMVRRWALHPHLRDDLDTIYQSNLLFDKFDVQFLSSRQVCTGGFNNTLYTMDVEGTSADAASDIRTFQLLKTEGISEFRRTTVSAHRRGEDRISTGQGLGSRMTLMSRPYMSMSGACGMMVACGQAVLQLSYNGLSK”, the “soluble on expression in E. coli” value is reported as “not soluble”.
In the case of “MAHHHHHHMGTLEAQTQGPGSMSVMPDHWIKERALKDGMISPFVDHKEGTGVLSYGLSSYGYDARLDNKFKIFANTHSVVVDPKNFSQDSFVDREGDFCIIPPNSFMLAKTVEYFNIPRDVMVVCVGKSTYARCGIVVNVTPLEPGWSGYVTLEFSNTSPLPVKVYAFEGACQFLFFSGKERCSKSYDEAGGKYMGQSDVTLPIIS” it was “soluble”; in that of “MSDGSDDDTNNDGNYCKNVSYNFLIQRLAEVSNRKCLLLPKKKNRVDYISIMQTAEFYPELVNSSPPLEPGFTSCEVFVVDKKVDKDTLHLDNFSPYHIGATRRTLERQHSYFYRVNESGNFVPAIKTNGTHILRILVSILGSCPALNRKIYRMVKIESQNKNCLPSLIVYTFEPGHEIPKPNAPAILRRQTSDEIQKILNIPGTSFSQAHSEAVLNRFYDDLPIRDEASDQKRARYSIESTSSTNNQLNEINSFVVPKFEGRQESEQLFRDVKVEQFEESAEISINNRALSPHIQPSKTSVVNRPNQQNRKFQNYDMFSAGVISTATVPAPMFHPHITPIADLKDDDGYDPEELTQRNKLASLYRLVDLFRWSQGIYNHITVRVSTDPDEILINAFGQLYSEVSASSLIKVDLDGTVIDGGSTNFGVNQAGYVLHSAIHNGRPEVKCVVHLHHPSVVAVSAQKCGLLPISQESMIVGDVGYHEYRGILIDEAERALLVRDLGDRNVMILRNHGFVVCGESIEHALSLTYHLIIACETQIRTVPGGNTDNVHFPAQSAIKQVYKVASQGGGGVNRQNGHVNSMQWKKGELEWQAYMRQLDAQGYVTGNVPN”, “not soluble”.
“MPLRQDLTPVVITVTGADRHGVTAATFRVLSANNVQILDVEQSKFRGFLSIAVYAGIKASMIDSVEQGLRDTLSVHGQSVSLSVESRTEVSRPRSTHVVVILGNPVGAEDIWKIGQTMADFGANIDGIRGISDYPVTGLELRVTVADPAPGAAEPLRKALAALTTELGVDIVIERAGLQR”: the “soluble on expression in E. coli” value is on record as “not soluble”.
